Common to all, as to experiment: fluorescence polarisation
For orientation: In fluorescence polarisation assays a small probe gives low polarisation when free and higher when bound to something large.

Assay [1] addresses FITC-labeled MBOAT1 probe peptide FITC-… (human).
Assay [2] addresses FITC-labeled PRDM14 probe peptide FITC-… (human).
Assay [3] concerns the target FITC-labeled NCOA2 probe peptide FITC-… (human).
The target in assay [4] is FITC-labeled NKRF probe peptide FITC-….
Assay [5] has as its target SARS‐CoV‐2 NSP3 UBl1 domain (819–925), tag cleaved, for FP (SARS-CoV-2) (UniProt P0DTD1).
Assay [6] has as its target SARS‐CoV‐2 NSP9 (4141–4253), tag cleaved, for FP (SARS-CoV-2) (UniProt P0DTD1).
For assay [7], the target named is SARS‐CoV‐2 NSP3 SUD‐M domain (1356–1493), tag cleaved, for FP (SARS-CoV-2) (UniProt P0DTD1).

“SARS-CoV-2 NSP3 ADRP domain (domain or fragment)” had an equilibrium dissociation constant (Kd) in assay [1] of 51 µM.
For the substance “SARS-CoV-2 NSP3 SUD-M domain (domain or fragment)”, the Kd in assay [2] stood at 23 µM.
The substance “SARS-CoV-2 NSP3 UBl1 domain (domain or fragment)” yielded a Kd in assay [3] of 67 µM.
For the substance “SARS-CoV-2 non-structural protein 9 (NSP9) (natural protein)”, the Kd in assay [4] came to 15.5 µM.
For “wild‐type NCOA2_(1073–1088) peptide (from UniProt Q15596 1073-1088)”, the dissociation constant Kd in assay [5] worked out at 39 µM.
In assay [6], wild‐type NOTCH4 peptide (synthetic) showed an equilibrium dissociation constant (Kd) of 72 µM.
In assay [7], wild‐type PRDM14 peptide (synthetic) gave a Kd of 74 µM.

A word on the Kd: it is the equilibrium constant for the complex coming apart.

The record behind these values is paper PMC12102759.
